The chains are these.
B1: Tumor protein p73 (Homo sapiens), O15350 (parent)
chain: MAQSTATSPDGGTTFEHLWSSLEPDSTYFDLPQSSRGNNEVVGGTDSSMDVFHLEGMTTSVMAQFNLLSSTMDQMSSRAASASPYTPEHAASVPTHSPYAQPSSTFDTMSPAPVIPSNTDYPGPHHFEVTFQQSSTAKSATWTYSPLLKKLYCQIAKTCPIQIKVSTPPPPGTAIRAMPVYKKAEHVTDVVKRCPNHELGRDFNEGQSAPASHLIRVEGNNLSQYVDDPVTGRQSVVVPYEPPQVGTEFTTILYNFMCNSSCVGGMNRRPILIIITLEMRDGQVLGRRSFEGRICACPGRDRKADEDHYREQQALNESSAKNGAASKRAFKQSPPAVPALGAGVKKRRHGDEDTYYLQVRGRENFEILMKLKESLELMELVPQPLVDSYRQQQQLLQRPSHLQPPSYGPVLSPMNKVHGGMNKLPSVNQLVGQPPPHSSAATPNLGPVGPGMLNNHGHAVPANGEMSSSHSAQSMVSGSHCTPPPPYHADPSLVSFLTGLGCPNCIEYFTSQGLQSIYHLQNLTIEDLGALKIPEQYRMTIWRGLQDLKQGHDYSTAQQLLRSSNAATISIGGSGELQRQRVMEAVHFRVRHTITIPNRGGPGGGPDEWADFGFDLPDCKARKQPIKEEFTEAEIH
B2: Tumor protein p73 (Homo sapiens), O15350 (parent)
chain: B1 chain
partner: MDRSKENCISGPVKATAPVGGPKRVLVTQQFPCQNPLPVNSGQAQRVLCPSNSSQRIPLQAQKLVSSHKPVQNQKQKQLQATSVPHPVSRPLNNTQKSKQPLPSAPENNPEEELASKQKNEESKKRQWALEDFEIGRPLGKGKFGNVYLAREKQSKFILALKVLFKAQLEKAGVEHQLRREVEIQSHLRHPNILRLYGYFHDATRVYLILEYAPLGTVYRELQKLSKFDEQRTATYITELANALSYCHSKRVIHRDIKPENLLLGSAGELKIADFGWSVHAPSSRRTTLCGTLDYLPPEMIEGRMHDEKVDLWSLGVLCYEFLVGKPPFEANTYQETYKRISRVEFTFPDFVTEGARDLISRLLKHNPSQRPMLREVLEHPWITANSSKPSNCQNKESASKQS

Variants of B1 are the subject of one test. Conditions: with hspa9_human HSPA9, P38646.
Sequence of hspa9_human HSPA9, P38646 (P38646 whole entry): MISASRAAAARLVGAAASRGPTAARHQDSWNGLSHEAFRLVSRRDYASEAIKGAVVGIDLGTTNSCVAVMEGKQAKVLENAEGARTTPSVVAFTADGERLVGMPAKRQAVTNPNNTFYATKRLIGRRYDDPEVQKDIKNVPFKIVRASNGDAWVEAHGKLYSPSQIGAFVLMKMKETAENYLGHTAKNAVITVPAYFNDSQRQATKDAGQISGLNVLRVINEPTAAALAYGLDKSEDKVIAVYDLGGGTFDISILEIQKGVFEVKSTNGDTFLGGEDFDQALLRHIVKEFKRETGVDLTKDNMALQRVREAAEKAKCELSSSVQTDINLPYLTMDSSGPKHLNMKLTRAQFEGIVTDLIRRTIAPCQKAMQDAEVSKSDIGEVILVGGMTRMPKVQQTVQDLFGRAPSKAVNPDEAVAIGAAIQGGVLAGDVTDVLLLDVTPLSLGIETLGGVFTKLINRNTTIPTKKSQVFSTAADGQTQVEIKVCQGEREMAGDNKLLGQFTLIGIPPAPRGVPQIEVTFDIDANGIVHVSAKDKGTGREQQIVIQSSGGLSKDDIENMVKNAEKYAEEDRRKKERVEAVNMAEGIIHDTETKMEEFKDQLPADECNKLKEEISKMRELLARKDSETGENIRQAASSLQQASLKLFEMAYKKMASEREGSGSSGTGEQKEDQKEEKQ
Regarding S235D, the “effect of a mutation on the interaction” value is “increasing interaction strength”.

In another test the parent is B2. Conditions: with aurka_human AURKA.
Take S235D: the “effect of a mutation on the interaction” value is recorded as “increasing interaction strength”.

For the origin of these results see IntAct's records for PubMed 22340593.
